In patent publication US20160096874A1, “MRG RECEPTOR MODULATORS” (BAYER PHARMA AKTIENGESELLSCHAFT, priority 2013, published 2016):
Entries after “also recorded” stand apart in the source; their conditions may differ. Peptide text beside a SMILES is read from it.

T1: human MrgX2 (Homo sapiens, UniProt Q96LB1)
T1 construct: The used cell line is overexpressing MrgX2 in CHEM1 by recombinant expression; host or cells: CHEM1 (adherent rat cell line)
T1 sequence (Q96LB1 1-330): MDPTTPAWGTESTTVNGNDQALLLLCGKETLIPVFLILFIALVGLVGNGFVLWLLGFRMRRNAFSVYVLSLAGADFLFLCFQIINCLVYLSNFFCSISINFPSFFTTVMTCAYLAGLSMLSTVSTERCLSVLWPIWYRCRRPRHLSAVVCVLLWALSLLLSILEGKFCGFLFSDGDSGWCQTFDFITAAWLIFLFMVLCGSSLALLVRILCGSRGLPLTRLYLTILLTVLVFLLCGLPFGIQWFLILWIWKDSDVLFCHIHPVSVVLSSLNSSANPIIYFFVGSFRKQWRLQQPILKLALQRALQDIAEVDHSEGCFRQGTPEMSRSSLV


Key:
[1] = system: CHEM1 cells; assay: Fluo8 assay, Calcium release in CHEM1 (control) cells without MrgX2 overexpression; type: cell-based, rat; details: control cell line, same experimental conditions, result in words
Experimental: The Fluo8 assay is a cell based assay format for the determination of intracellular Calcium release. Cell were seeded on microtiter plates and incubated under standard cell culture conditions. After 24 h the medium was removed and the cells were washed with PBS. The cells were incubated with loading buffer (40 ml PBS with 2 mM Calcium +800 μl brilliant black (2%) +732 μl pobenecid (0.5 M) in 1N NaOH +400 μl Pluronic (10%) in water +152 μl Fluo8 (5.7 μg/ml) in water) for 30 minutes. For fluorescence readout and compound testing a FLIPR tetra system was used according to the manufactures protocol (Molecular Devices, Calif. 94089-1136, USA).
The used cell lines CHEM1 and CHEM1-MrgX2 are adherent rat cell lines (Millipore, Billerica, Mass. 01821, USA) with were cultures under standard cell culture conditions.

[2] = target: T1, human MrgX2; assay: Fluo8 assay, intracellular Calcium release in CHEM1-MrgX2 cells; type: cell-based
Experimental: The Fluo8 assay is a cell based assay format for the determination of intracellular Calcium release. Cell were seeded on microtiter plates and incubated under standard cell culture conditions. After 24 h the medium was removed and the cells were washed with PBS. The cells were incubated with loading buffer (40 ml PBS with 2 mM Calcium +800 μl brilliant black (2%) +732 μl pobenecid (0.5 M) in 1N NaOH +400 μl Pluronic (10%) in water +152 μl Fluo8 (5.7 μg/ml) in water) for 30 minutes.

[3] = target: human MrgX2 (human) (UniProt Q96LB1); assay: cell-based or functional assay
[4] = target: T2, CXCR4 (Homo sapiens, UniProt P61073); assay: CXCR4 activity assay (CRE-luciferase reporter); type: cell-based; details: result in words
T2 construct: expressed in transfected cells
From the text: The CXCR4 receptor is a chemokine receptor and belongs to the family of G protein coupled receptors (GPCRs). Its only known endogenous ligand is stromal cell-derived factor 1 (SDF-1a). CXCR4 is a Gi coupled receptor. Its activation leads to a decrease of intracellular cAMP, which could be monitored by recombinant cAMP-responsive element (CRE) regulated luciferase expression. For the characterization of modulators of CXCR4 activity, stable cell lines expressing recombinant CXCR4 and a CRE-luciferase reporter vector were established. The cells were incubated with forskolin at a concentration of 0.5 μM, SDF-1a (at 20 nM) and test compounds and incubated for 4 h under standard cell culture conditions. Luciferase substrate was added and the luminescence was measured for 60 seconds.

T2 sequence (P61073 whole entry, species assumed): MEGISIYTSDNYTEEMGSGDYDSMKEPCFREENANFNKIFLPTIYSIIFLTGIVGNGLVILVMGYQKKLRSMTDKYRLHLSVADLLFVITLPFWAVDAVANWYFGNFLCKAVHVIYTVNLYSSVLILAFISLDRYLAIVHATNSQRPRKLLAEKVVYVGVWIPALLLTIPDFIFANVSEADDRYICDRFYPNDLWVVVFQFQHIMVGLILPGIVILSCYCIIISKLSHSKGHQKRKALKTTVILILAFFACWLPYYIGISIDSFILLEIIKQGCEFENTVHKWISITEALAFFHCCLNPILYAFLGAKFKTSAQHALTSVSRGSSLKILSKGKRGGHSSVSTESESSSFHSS

Row | Molecule | Calcium release on CHEM1 without MrgX2 [1] | Calcium release / activity on MrgX2 (CHEM1-MrgX2) ([2]; Fluo8 assay, result in words) | further results
1 | CC(C)C[C@H](NC(=O)[C@H](C)NC(=O)[C@H](Cc1c[nH]c2ccccc12)NC(=O)[C@H](CCCCN)NC(=O)[C@H](CC(N)=O)NC(=O)[C@H](Cc1c[nH]c2ccccc12)NC(=O)[C@H](CCCCN)NC(=O)[C@H](CCCCN)NC(=O)[C@H](CCCNC(=N)N)NC(=O)[C@H](Cc1ccccc1)NC(=O)[C@H](CCC(=O)O)NC(=O)[C@H](CO)NC(=O)[C@H](C)NC(=O)[C@@H](NC(=O)[C@H](CC(=O)O)NC(=O)[C@H](CC(C)C)NC(=O)[C@H](CCCNC(=N)N)NC(=O)[C@H](C)N)C(C)C)C(=O)N[C@@H](CO)C(=O)N[C@@H](CCCNC(=N)N)C(N)=O [PAMP, reference compound] (H-ARLDVASEFRKKWNKWALSR-NH2) | not in CHEM1 | dose dependent Calcium release | –
2 | NPY: peptide analyzed to characterize the specificity of CXCL14 to MrgX2 activation [reference compound] | Neither NPY or angiotension II nor galanin show a dose dependent Calcium release | Neither NPY or angiotension II nor galanin show a dose dependent Calcium release | –
3 | PAMP (from UniProt P35318 22-185) (peptide) | – | – | EC50 of calcium release (Fluo8 assay) on CHEM1-MrgX2 cells [3]: 490 nM
4 | angiotensin II (DRVYIHPF) [reference compound] | Neither NPY or angiotension II nor galanin show a dose dependent Calcium release | Neither NPY or angiotension II nor galanin show a dose dependent Calcium release | –
5 | human CXCL14 (from UniProt O95715 35-111) (ligand) | – | – | EC50 of intracellular calcium release (Fluo8 assay) on CHEM1-MrgX2 cells [3]: 570 nM
6 | Chemokine (C-X-C motif) ligand 14 (protein, listed as Homo sapiens, small cytokine belonging to the CXC chemokine family) SKCKCSRKGPKIRYSDVKKLEMKPKYPHCEEKMVIITTKSVSRYRGQEHCLHPKLQSTKRFIKWYNAWNEKRRVYEE | no significant calcium release | activated by CXCL14 in a dose dependent matter; also recorded: specific agonist | EC50 ([2]; Calcium release, Fluo8 assay, CHEM1 overexpressing MrgX2): 570 nM; activity on G-protein coupled receptor CXCR4 [4]: antagonist
7 | Mouse CXCL14: mouse CXCL14, amino acid sequence in FIG. 19; differs from human by two amino acid residues (protein) SKCKCSRKGPKIRYSDVKKLEMKPKYPHCEEKMVIVTTKSMSRYRGQEHCLHPKLQSTKRFIKWYNAWNEKRRVYEE | not on CHEM1 without MrgX2 | dose dependent Calcium release | EC50 on CHEM1-MrgX2 compared with human CXCL14 ([2]; Calcium release, result in words): comparable EC50
